Source: paper PMC2921341, “Interaction of Serum- and Glucocorticoid Regulated Kinase 1 (SGK1) with the WW-Domains of Nedd4-2 Is Required for Epithelial Sodium Channel Regulation” (PLoS ONE, 2010)

How the values were obtained:
[1] = test system: Nedd4-2; conditions: previous work; ref [19]; cited from earlier work
Source text: There has been debate in the literature over detection of an interaction between SGK and Nedd4-2 in vitro, and the interaction is currently not understood at the molecular level. SGK contains a PY motif (PPFY), which might mediate interaction with the WW-domains of Nedd4/Nedd4-2. […] Two previous in vitro binding studies have asked whether the WW-domains of Nedd4-2 interact with an SGK peptide containing the PY motif. […] To test the hypothesis that the interaction of the Nedd4-2 WW-domains with the SGK PY motif is required for SGK to influence Nedd4-2 function, we co-expressed α-, β- and γENaC in FRT epithelia with either wild type SGK or SGKY298A along with increasing amounts of Nedd4-2, and measured the amiloride-sensitive short circuit current. Consistent with our previous work, we fo ...

[2] = test system: ENaC; assay: Amiloride-sensitive short circuit current in FRT epithelia with ENaC: Nedd4-2 dose response with SGK, SGKY298A or GFP; assay type: cell-based; conditions: for effect on Nedd4-2 dose-response relationship for ENaC inhibition (in words): FRT epithelia with α-, β-, γENaC, 0.6 µg SGK construct, Nedd4-2 0–0.2 µg, amiloride 10 µM, n = 18
Method: To test the hypothesis that the interaction of the Nedd4-2 WW-domains with the SGK PY motif is required for SGK to influence Nedd4-2 function, we co-expressed α-, β- and γENaC in FRT epithelia with either wild type SGK or SGKY298A along with increasing amounts of Nedd4-2, and measured the amiloride-sensitive short circuit current.
Figure 4 The SGK PY motif is necessary for SGK to inhibit Nedd4-2. Amiloride-sensitive short-circuit sodium current (relative to 0 µg of Nedd4-2) in FRT cells 48 hr after transfection with α-, β- and γENaC and SGK (closed circles) or SGKY298A (open circles) or GFP (closed squares), in the presence of increasing amounts of Nedd4-2, n = 18. Nedd4-2 is expressed as a fraction of the amount of ENaC cDNA. Expression of SGK and SGKY298A was reported in Figure 1B of Snyder et al..
Fischer rat thyroid (FRT) cells were grown on permeable filter supports (Snapwell™, Corning USA or Millicell PCF, both with […] pore size, 12 mm diameter) in F-12 Coon's media with 5% fetal calf serum (Sigma), 100 U/ml penicillin, and 100 µg/ml streptomycin at 37°C. One day after seeding, cells were cotransfected with α-, β- and γENaC (0.07 µg each), 0.6 µg wildtype or mutant SGK, and 0–0.2 µg Nedd4-2 (Fig. 4 only). Total DNA was held constant (1 µg/millicell) using cloning vector DNA. The plasmids were mixed with Lipofectamine 2000 (Invitrogen) or TFX 50 (Promega, Madison, WI; 7.9 µg/millicell) in serum free F12 Coon's media for 15 minutes and transferred to the apical surface of the monolayer. One-six hours later, the apical media was replaced with F-12 Coon's media containing 5% fetal calf serum and amiloride (10 µM). Short-circuit current was measured […] after transfection in modified Ussing chambers connected to a voltage clamp (South Campus Electronics, Dunedin, New Zealand or Warner Instruments). The apical and basolateral surfaces were bathed in (in mM) 135 NaCl, 1.2 CaCl2, 1.2 MgCl2, 2.4 K2HPO4, 0.6 KH2PO4, 10 HEPES, pH 7.4, at 37°C and bubbled with O2. Amiloride-sensitive short-circuit current (Isc-amiloride) was determined as the difference in current with and without amiloride (10 µM) in the apical bathing solution. Data are presented as relative Isc-amiloride (Isc-amiloride relative) that was obtained by normalizing the Isc-amiloride to that of control cells transfected with αβγENaC in the same experiment. Transepithelial resistance (Rt) was monitored by applying repetitive voltage potential pulses (5 mV for 1 sec at 120 sec intervals) across the epithelium.

[3] = test system: Nedd4-2; conditions: SGK lacking its PY motif; ref [20]; cited from earlier work
[4] = test system: ENaC; assay: Amiloride-sensitive short circuit current in FRT epithelia transfected with α-, β- and γENaC; assay type: cell-based; conditions: serum-containing and serum-free media gave similar results, amiloride 10 µM, n = 4
Method: (§1) SGK is activated by phosphorylation, via a phosphatidylinositide 3-kinase (PI3K)-dependent pathway, and SGK is then able to phosphorylate substrates such as Nedd4-2. Although we were able to detect interaction of Nedd4-2 WW-domains with wildtype SGK (Fig. 1B, C), we hypothesized that an activated form of SGK might have a higher affinity for Nedd4-2. Therefore GST interaction experiments were performed comparing the binding of wildtype SGK and activated SGK (SGKS422D) to isolated Nedd4-2 WW-domains. SGKS422D appeared to run more slowly compared to SGK, consistent with it representing a phosphorylated form of SGK [8]. […] To ask if SGKS422D has an altered effect on Na^+ transport, we measured the amiloride-sensitive short circuit current in Fischer rat thyroid (FRT) epithelia transfected with α-, β-, and γENaC and either wildtype or activated SGK (Fig. 3C). […] Instead, increased binding of SGKS422D to Nedd4-2 may be a factor in the improved ability of SGKS422D to increase amiloride-sensitive current.
(§2) Figure 3 SGKS422D binding to Nedd4-2 and stimulation of ENaC is enhanced compared to wildtype SGK. (A) SGK-FLAG or SGKS422D-FLAG were expressed in COS7 cells. […] After washing the beads, the bound proteins were eluted and analyzed by SDS-PAGE and western blotting with anti-FLAG. […] (B) The resulting bands were quantified by densitometry and normalized to total expression of either SGK or SGKS422D. […]

[5] = test system: GST; assay: GST interaction experiments, GST alone (control); assay type: binding; conditions: GST pulldown control, COS7 lysates, Fig. 3A
Method: as §1, §2

[6] = test system: Nedd4-2 WW-domains; assay: GST interaction experiments, wildtype versus activated SGK on Nedd4-2 WW-domains; assay type: binding, human; conditions: GST pulldown with 50 µg WW2, WW3 or WW2–3 fusion, COS7 lysates, densitometry normalized to expression; n = 9 for WW2 and WW3, n = 6 for WW2–3
Method: as §1, §2

[7] = test system: Nedd4; conditions: in vitro studies; ref [19]; cited from earlier work
Source text: There has been debate in the literature over detection of an interaction between SGK and Nedd4-2 in vitro, and the interaction is currently not understood at the molecular level. SGK contains a PY motif (PPFY), which might mediate interaction with the WW-domains of Nedd4/Nedd4-2. […] Two previous in vitro binding studies have asked whether the WW-domains of Nedd4-2 interact with an SGK peptide containing the PY motif. One study used surface plasmon resonance and ...

B1: SGKY298A: SGK that contains a mutated PY motif (protein)
chain: MTVKTEAAKGTLTYSRMRGMVAILIAFMKQRRMGLNDFIQKIANNSYACKHPEVQSILKISQPQEPELMNANPSPPPSPSQQINLGPSSNPHAKPSDFHFLKVIGKGSFGKVLLARHKAEEVFYAVKVLQKKAILKKKEEKHIMSERNVLLKNVKHPFLVGLHFSFQTADKLYFVLDYINGGELFYHLQRERCFLEPRARFYAAEIASALGYLHSLNIVYRDLKPENILLDSQGHIVLTDFGLCKENIEHNSTTSTFCGTPEYLAPEVLHKQPYDRTVDWWCLGAVLYEMLYGLPPFASRNTAEMYDNILNKPLQLKPNITNSARHLLEGLLQKDRTKRLGAKDDFMEIKSHVFFSLINWDDLINKKITPPFNPNVSGPNDLRHFDPEFTEEPVPNSIGKSPDSVLVTASVKEAAEAFLGFSYAPPTDSFL
modifications: left off: FLAG, end not stated, state not stated
notes: SGK that contains a mutated PY motif
For B1, the “binding to full length Nedd4-2 (in words)” value [1] is listed as “not able to bind full length Nedd4-2”, the “stimulation of ENaC in the presence of Nedd4-2 (in words)” value ([2]; FRT epithelia with ENaC and Nedd4-2) is listed as “failed to stimulate ENaC activity in the presence of Nedd4-2” and the “effect on Nedd4-2 dose-response relationship for ENaC inhibition (in words)” value [2] is listed as “had no effect on the Nedd4-2 dose-response relationship”. For the same molecule, the “phosphorylation of Nedd4-2 (in words)” value [3] was “less able to phosphorylate Nedd4-2”.

B2: SGKS422D: activated SGK; mutation of one of two phosphorylation sites (protein)
chain: MTVKTEAAKGTLTYSRMRGMVAILIAFMKQRRMGLNDFIQKIANNSYACKHPEVQSILKISQPQEPELMNANPSPPPSPSQQINLGPSSNPHAKPSDFHFLKVIGKGSFGKVLLARHKAEEVFYAVKVLQKKAILKKKEEKHIMSERNVLLKNVKHPFLVGLHFSFQTADKLYFVLDYINGGELFYHLQRERCFLEPRARFYAAEIASALGYLHSLNIVYRDLKPENILLDSQGHIVLTDFGLCKENIEHNSTTSTFCGTPEYLAPEVLHKQPYDRTVDWWCLGAVLYEMLYGLPPFYSRNTAEMYDNILNKPLQLKPNITNSARHLLEGLLQKDRTKRLGAKDDFMEIKSHVFFSLINWDDLINKKITPPFNPNVSGPNDLRHFDPEFTEEPVPNSIGKSPDSVLVTASVKEAAEAFLGFDYAPPTDSFL
modifications: left off: FLAG, C-terminal, kept
notes: mutation of one of two phosphorylation sites
For B2, the “effect on amiloride-sensitive short circuit current, Isc-amiloride (in words)” value [4] was “greater stimulatory effect on Isc-amiloride compared to SGK”, the “binding to GST alone (in words)” value [5] was “did not bind to GST alone” and the “binding to Nedd4-2 WW-domains compared with wildtype SGK (in words)” value [6] was “binds Nedd4-2 WW-domains more strongly than SGK”.

B3: SGK: Serum- and Glucocorticoid regulated Kinase isoform 1 (protein, UniProt O00141 1-431, looked up)
Serine/threonine-protein …: MTVKTEAAKGTLTYSRMRGMVAILIAFMKQRRMGLNDFIQKIANNSYACKHPEVQSILKISQPQEPELMNANPSPPPSPSQQINLGPSSNPHAKPSDFHFLKVIGKGSFGKVLLARHKAEEVFYAVKVLQKKAILKKKEEKHIMSERNVLLKNVKHPFLVGLHFSFQTADKLYFVLDYINGGELFYHLQRERCFLEPRARFYAAEIASALGYLHSLNIVYRDLKPENILLDSQGHIVLTDFGLCKENIEHNSTTSTFCGTPEYLAPEVLHKQPYDRTVDWWCLGAVLYEMLYGLPPFYSRNTAEMYDNILNKPLQLKPNITNSARHLLEGLLQKDRTKRLGAKDDFMEIKSHVFFSLINWDDLINKKITPPFNPNVSGPNDLRHFDPEFTEEPVPNSIGKSPDSVLVTASVKEAAEAFLGFSYAPPTDSFL
In the case of B3, the “effect on amiloride-sensitive short circuit current, Isc-amiloride (in words)” value [4] is given as “stimulated Isc-amiloride significantly”, the “binding to full length Nedd4-2 (in words)” value [1] is given as “Nedd4 and Nedd4-2 interact with wildtype SGK” and the “interaction with Nedd4 (in words)” value [7] is given as “Nedd4 and Nedd4-2 interact with wildtype SGK”. The “effect on Nedd4-2 dose-response relationship for ENaC inhibition (in words)” value [2] was “reduced inhibition, shifting the dose-response relationship to the right”.
